# According to US20140205612A1:
# Residue numbers refer to the chain shown, from its start.
# B1: 1503_H05 (PG16) (TCN-119) (antibody, V domains shown)
# VH: QEKLVESGGGVVQPGGSLRLSCLASGFTFHKYGMHWVRQAPGKGLEWVALISDDGMRKYHSDSMWGRVTISRDNSKNTLYLQFSSLKVEDTAMFFCAREAGGPIWHDDVKYYDFNDGYYNYHYMDVWGKGTIVTVSS
# VL: QSALTQPASVSGSPGQTITISCNGTRSDVGGFDSVSWYQQSPGKAPKVMVFDVSHRPSGISNRFSGSKSGNTASLTISGLHIEDEGDYFCSSLTDRSHRIFGGGTKVTVLG
# B2: 1489_I13 (PG16) (TCN-120) (antibody, V domains shown)
# VH: B1 VH with K3Q, V5L, D62N, I132T
# VL: B1 VL with R26S
# B3: 1469_M23 (PG16) (TCN-118) (antibody, V domains shown)
# VH: B1 VH with I132T
# VL: B1 VL with K44R, V107L
# B4: 1456_A12 (PG16) (TCN-117) (antibody, V domains shown)
# VH: B1 VH with Q1H, K3Q, S7A, K87R, I132K
# VL: B1 VL with R26S, S27R, I60M, V107L
# Experiments:
# Test in all cases: cell-based or functional assay
# [1] = target: 92RW020 Env on pseudovirus (HIV-1 92RW020)
# [2] = target: ADA Env on pseudovirus (HIV-1 ADA)
# [3] = target: HIV-1 JR-CSF Env on pseudovirus (HIV-1 JR-CSF) (UniProt P20871)
# [4] = target: JR-CSF(1309A) Env on pseudovirus (HIV-1 JR-CSF) (UniProt P20871)
# [5] = target: JR-CSF(Y318A) Env on pseudovirus (HIV-1 JR-CSF) (UniProt P20871)
# [6] = target: JR-FL(E168K) Env on pseudovirus (HIV-1 JR-FL)
Binder,"IC50 (ug/ml), pseudovirus neutralization, TZM-bl assay [1] [µg/mL]","IC50 (ug/ml), pseudovirus neutralization, TZM-bl assay [2] [µg/mL]","IC50 (ug/ml), pseudovirus neutralization, TZM-bl assay [3] [µg/mL]","IC50 (ug/ml), pseudovirus neutralization, TZM-bl assay [4] [µg/mL]","IC50 (ug/ml), pseudovirus neutralization, TZM-bl assay [5] [µg/mL]","IC50 (ug/ml), pseudovirus neutralization, TZM-bl assay [6] [µg/mL]"
B1,0.02,0.003,0.001,> 1,> 1,0.002
B2,0.03,0.008,0.002,> 1,> 1,0.005
B3,0.05,0.005,0.002,> 1,> 1,0.005
B4,0.05,0.005,0.001,> 1,> 1,0.003
